Where a chain is given by its changes, count along the chain named. Numbers in names are those of the source.
B1: serine protease inhibitor Kazal-type 1 (SPINK1) p.N34S (natural protein)
chain: DSLGREAKCYSELNGCTKIYDPVCGTDGNTYPNECVLCFENRKRQTSILIQKSGPC
B2: serine protease inhibitor Kazal-type 1 (SPINK1) WT (natural protein)
chain: B1 chain with S11N

Columns and labels:
[1] = target: T1, human cationic trypsin (TRY1) p.S200A (human, UniProt P07477 24-247, p.S200A); test: SPR
[2] = target: human cationic trypsin (TRY1) WT (human, UniProt P07477 24-247); test: trypsin activity assay
[3] = target: T1, human cationic trypsin (TRY1) p.S200A; test: SPR; remark: listed apart in the source

Row | Kd [1] | Ki [2] | koff [3] | Binder
1 | 0.863 nM | 0.045 nM | 0.0002 s⁻¹ | B1
2 | 0.8 nM | 0.028 nM | 0.0002 s⁻¹ | B2

Source: article PMC8998336 (2022)
